Key:
[1] = molecular target: T1, human Galectin-9 CRD1 (residues 1-148) (human, UniProt O00182 1-148, biotinylated in vitro with BirA at the Avitag); test: bead-based binding assay
T1 construct: also called CRD1 domain of galectin-9; not shown: Avitag left upstream after thrombin cleavage of the GST fusion (pGEX)
Description: The affinities of the antibodies were assessed using a bead-based assay as previously described (Nishikori et al., J Mol Biol, 2012, 424, 391-399) and surface plasmon resonance (SPR). In the bead-based assay, a biotinylated protein (either a Galectin-9 sample or a Fab sample) was immobilized on streptavidin-coated Dynabeads M280 via the biotin-streptavidin interaction. After blocking the excess biotin-binding sites on the beads using unconjugated biotin, binding titration was performed by incubating the second component (i.e., Fab for immobilized Galectin-9 or vice versa), followed by quantification using a dye-labeled neutravidin (ThermoFisher) and flow cytometry analysis. In experiments where the second component is an IgG, a dye-labeled anti-human IgG or anti-mouse IgG antibody was used for detection.
The binding activity of clone G9.1-8m13 is evaluated using conventional methods.

rat galectin-9 CRD2 [2] = molecular target: T2, rat galectin-9 CRD2 (rat, UniProt P97840 226-354, limits assumed); test: bead based binding, rat CRD2
T2 construct: domain: CRD2; Only two short stretches of the rat protein are given; also called CRD2 domain of rat galectin-9; rat gal-9 CRD2

[3] = molecular target: human Galectin-9 CRD2 W277A mutant (human, UniProt O00182 218-355, immobilised on streptavidin coated beads (biotinylated)); test: mutant on streptavidin beads, G9.2-17 titrated
Description: (§1) FIG. 17 depicts a bar graph showing the results of epitope mapping studies of gal-9 CRD2 using alanine scanning to characterize G9.2-17 binding. Galectin-9 CRD2 mutants were generated using site-directed mutagenesis. Mutants were immobilized onto streptavidin coated beads and G9.2-17 was titrated to generate a saturation curve. KD values were calculated by fitting curves to Michaelis Menton kinetics. ΔΔG values of binding for each mutant versus wild-type galectin shown. Arrows indicate values that are outside the limit of detection for the assay. Higher ΔΔG values represent greater contribution to G9.2-17 epitope. Mutations were mapped onto the surface of gal CRD2 crystal structure (PDB 3nv4).
(§2) To determine the epitope of G9.2-17 on galectin-9 CRD2, we first mutated residues in several positions throughout CRD2 including R239, which is crucial for carbohydrate binding (Zhu et al., 2005). Only one mutation, W277K, decreased G9.2-17 binding. […] To further map the binding patch of G9.2-17, residues that are spatially adjacent to W277 were mutated to alanine and their binding was assessed. W277A and L279A result in complete abrogation of G9.2-17 binding in our assay. […] These residues are located adjacent in space in the beta-sheet, and form a patch on the back side of CRD2 relative to its carbohydrate recognition site.

[4] = molecular target: human Galectin-9 CRD2 L279A mutant (human, UniProt O00182 218-355, immobilised on streptavidin coated beads (biotinylated)); test: mutant on streptavidin beads, G9.2-17 titrated
Description: as §1, §2

[5] = molecular target: T3, human Galectin-9 CRD2 (residues 218-355) (human, UniProt O00182 218-355, biotinylated in vitro with BirA at the Avitag (where immobilised)); test: ELISA, antibody titrated over immobilized human CRD2
T3 construct: also called human gal-9 CRD2; wild-type Galectin-9 CRD2; not shown: N-terminal hexahistidine tag, Avitag and TEV cleavage site of the pHBT vector

[6] = molecular target: T4, cynomolgus monkey galectin-9 CRD2 (cynomolgus monkey, UniProt A0A7N9IHL9 218-355); test: biolayer interferometry, G9.2-17 captured on anti-Fab probes, primate gal-9 CRD2 in solution, global fit
T4 construct: domain: CRD2; Only two short stretches of a macaque protein are given; also called CRD2 domain of cynomolgus galectin-9; primate gal-9 CRD2
Description: (§3) FIGS. 16A-16D include graphs showing biolayer interferometry analysis to measure binding affinity to human (FIG. 16A), mouse (FIG. 16B), primate (FIG. 16C) or rat (FIG. 16D) gal-9 CRD2. G9.2-17 was captured onto anti-Fab probes and incubated either recombinant human, mouse, primate or rat gal-9 CRD2. Global fit, shown in black line, was used to calculate the dissociation constants. Representative data from triplicate runs shown.

[7] = molecular target: T3, human Galectin-9 CRD2 (residues 218-355); test: biolayer interferometry, G9.2-17 captured on anti-Fab probes, human gal-9 CRD2 in solution, global fit
Description: as §3

[8] = molecular target: T1, human Galectin-9 CRD1 (residues 1-148); test: bead assay, flow cytometry: biotinylated Galectin-9 CRD1 on streptavidin beads, G9.2-17 human IgG4 titrated
Source text: For further characterization, one clone, […] (a human IgG4 molecule) was screened for CRD specificity. Biotinylated Galectin-9 CRD1 or CRD2 was immobilized onto streptavidin-coated magnetic beads. The beads were blocked with excess biotin, followed by titration of the G9.2-17 human IgG4 antibody. The beads were then stained and quantified via flow cytometry.

rat galectin-9 CRD2 [9] = molecular target: T2, rat galectin-9 CRD2; test: biolayer interferometry, G9.2-17 captured on anti-Fab probes, rat gal-9 CRD2 in solution, global fit
Description: as §3

[10] = molecular target: T3, human Galectin-9 CRD2 (residues 218-355); test: bead based binding, human CRD2
[11] = molecular target: T4, cynomolgus monkey galectin-9 CRD2; test: bead based binding, cynomolgus CRD2
[12] = molecular target: T1, human Galectin-9 CRD1 (residues 1-148); test: bead based binding

T1 sequence (O00182 1-148): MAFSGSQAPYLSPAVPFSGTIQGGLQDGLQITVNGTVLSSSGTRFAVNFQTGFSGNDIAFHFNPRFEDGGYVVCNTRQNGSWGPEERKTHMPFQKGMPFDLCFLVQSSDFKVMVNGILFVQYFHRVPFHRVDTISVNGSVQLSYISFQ
T3 sequence (O00182 218-355 limits assumed): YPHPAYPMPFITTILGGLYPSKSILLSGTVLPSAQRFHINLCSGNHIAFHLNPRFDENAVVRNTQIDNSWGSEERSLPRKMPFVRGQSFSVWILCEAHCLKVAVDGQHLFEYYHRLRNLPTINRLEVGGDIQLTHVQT
T2 sequence (P97840 226-354 limits assumed): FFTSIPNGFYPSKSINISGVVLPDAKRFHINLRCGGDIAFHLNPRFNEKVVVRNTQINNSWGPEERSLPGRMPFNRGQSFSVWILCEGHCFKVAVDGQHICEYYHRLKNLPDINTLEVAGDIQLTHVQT
Chain of human Galectin-9 CRD2 L279A mutant (O00182 218-355 L311A): as the sequence (O00182 218-355 limits assumed) above, with L94A counted along it
Chain of human Galectin-9 CRD2 W277A mutant (O00182 218-355 W309A): as the sequence (O00182 218-355 limits assumed) above, with W92A counted along it

B1: G9.1-8m13 Fab (Fab, V domains shown)
VH: EVQLVESGGGLVQPGGSLRLSCAASGFTVSSSSIHWVRQAPGKGLEWVAYIYPYSSSSSYADSVKGRFTISADTSKNTAYLQMNSLRAEDTAVYYCARYSTYSSKWVWGMDYWGQGTLVTVSS
VL: DIQMTQSPSSLSASVGDRVTITCRASQSVSSAVAWYQQKPGKAPKLLIYSASSLYSGVPSRFSGSRSGTDFTLTISSLQPEDFATYYCQQSYYDSNPITFGQGTKVEIKR
notes: Fab purified from E. coli; also called purified G9.1-8m13 Fab; 9.1-8mut13
[1]
  Kd: 20.7 nM

B2: G9.1-8m13 mIgG2a (antibody, V domains shown)
VH: EVQLVESGGGLVQPGGSLRLSCAASGFTVSSSSIHWVRQAPGKGLEWVAYIYPYSSSSSYADSVKGRFTISADTSKNTAYLQMNSLRAEDTAVYYCARYSTYSSKWVWGMDYWGQGTLVTVSS
VL: DIQMTQSPSSLSASVGDRVTITCRASQSVSSAVAWYQQKPGKAPKLLIYSASSLYSGVPSRFSGSRSGTDFTLTISSLQPEDFATYYCQQSYYDSNPITFGQGTKVEIKR
notes: also called purified G9.1-8m13 mIgG2a molecule
[1]
  Kd: 0.3 nM

B3: G9.2-17 human IgG4 (antibody, V domains shown)
VH: EVQLVESGGGLVQPGGSLRLSCAASGFTVSSSSIHWVRQAPGKGLEWVAYISSSSGYTYYADSVKGRFTISADTSKNTAYLQMNSLRAEDTAVYYCARYWSYPSWWPYRGMDYWGQGTLVTVSS
VL: DIQMTQSPSSLSASVGDRVTITCRASQSVSSAVAWYQQKPGKAPKLLIYSASSLYSGVPSRFSGSRSGTDFTLTISSLQPEDFATYYCQQSSTDPITFGQGTKVEIKR
notes: also called G9.2-17 hIgG4; G9.2-17 IgG4
Rat galectin-9 CRD2 [2]
  Kd: 0.31 nM
[3]
  binding result: no binding
[4]
  binding result: no binding
[5]
  Kd: 0.42 nM
[6]
  Kd: 0.615 nM
[7]
  Kd: 0.183 nM
[8]
  binding result: no binding (tested: 50 nM)
Rat galectin-9 CRD2 [9]
  Kd: 2.71 nM
[10]
  Kd: 0.15 nM
[11]
  Kd: 0.31 nM

B4: G9.2-17 mIgG1 (antibody, V domains shown)
VH: EVQLVESGGGLVQPGGSLRLSCAASGFTVSSSSIHWVRQAPGKGLEWVAYISSSSGYTYYADSVKGRFTISADTSKNTAYLQMNSLRAEDTAVYYCARYWSYPSWWPYRGMDYWGQGTLVTVSS
VL: DIQMTQSPSSLSASVGDRVTITCRASQSVSSAVAWYQQKPGKAPKLLIYSASSLYSGVPSRFSGSRSGTDFTLTISSLQPEDFATYYCQQSSTDPITFGQGTKVEIKR
notes: also called mouse IgG1 version of G9.2-17; mIgG1 G9.2-17
Rat galectin-9 CRD2 [2]
  Kd: 0.35 nM
[12]
  binding result: no binding
[5]
  Kd: 0.45 nM
[10]
  Kd: 0.18 nM
[11]
  Kd: 0.3 nM
